Source: a protein production outcome set (Wang et al. 2014)

Test: label from the status in PepcDB records

Sequence | protein production
MRETLERLLASETFGRSERARKLIRYLVEREQAGEADRLKGFSIAMDVFGKDGDFDPSTDAVVRVQAGRLRELLQQYFANEGIAEPVRIAIPRGGYVPAYELNAIRLPEVAKPAEQAAAAAAPAEHPSAAEDAVAPDASLAPAAAPVPSVARHLRFFWMAIAVVIAMLGVLILRQGSGALLAGGHLPATFESAGLTSSIAPSPVSEALPLVYIAVKASGADAGRIAASLRAGLSGFDTIDFIGRDTVDKTDPVNNPTSFIFDILPGPNTGDITIELQSMASGRVLLSRNLTPADSTPTAIEDRVADMLSSALPASGTIYNYIEQTGTPNGLTECLLLNDKYYLDQNARTHEAAYRCLETLANSGAKSSLVYSELASLQVEAVSDHYVYPPNATIEKAVEFAHRGVQMGPTSPYAHRAYGYVSSRLGNTDEAIRWMRKAYELNPYDLGMAAAYGYGLIFAGRYAEGTPILTHAAETFSGHSTWWDYGLFVGDFMLGDMNKAIAASMALRTTATKSHYLAARLIGAKAAGQDSLVTTLLNELNTKFPKFAADPRSTFVERKYPADLTDRLVQALRAAGLGSAS | failed
MRFAVLGSGSQGNGTLIASGDTFILVDCGFSLRETERRLALLGVSAAQLSAVLVTHEHADHVHGVGLLSRRYNVPVYLSQGTLRGMRKPVEVAGFLACGQSLHIGSLEVTAARVEHDAYEPLQYVVSDGKRRFGMLTDLGSYDALLLERYQGLDALLIEANHCRDLLARGHYPAFLKQRVGGMQGHLNNHQAARLVHELGWNNLQHLVLAHLSSKNNLPHLARQCFVDTLGCDPDWLQVANQEHGLDWREIALEHHHHHH | not failed
MRFCIMKKAVVLLSGGLDSTTCLALAKSQGFACYALSFSYGQRHSAELCAATRIAKHMGAADHKIVTLDIALFGGSALTDASIEVPEFKESPEIPVTYVPARNTIFLAMALGYAESIGARDIFIGASSVDYSHYPDCRPEFIESFQSLANLATKAGIEGDRFTINAPLQYLSKVQTIQLGTELGVDYGLTVSCYQANEAGEACGQCDSCTFRKRGFKSAGVDDPTRYQKCVHI | failed
MRFDGAAGLAQRMPMLGRVVQAAPLALLLGCCLILTLPASGRTLFYILCSLSLLFLPLAMFQRLEAKPKALNLLLSFALLIFIGFRAAWLWYFPAPTDAGLFPVAFAYQLSNKIWLSALPLLLFPLWSPFRERLSPAGATLALVSASALLSMITLKAWYDAHGVRVGLGSLYATGAAYLLSAIHFFALLLFHPFRLKKWQWLGLCLLIALQFMSIVATGTRAALLVYLFVLGCALLWRFGLHQSWRTYAIAALLSVATLWLSWAAVGSRVKQAQADLIAYSQGNADTSLGIRFSLWDAGVHAVREQPWGQSIQARDVLFHQLVKDGALNKAALIMRDVHLHNEWLEILSLQGLPGALSWLIFLLGFGVYGWKRGGFFRRFALFYIGFWLVFGLSDVLLLSPQIAMFGAMFAALGLYLAPIFDARDERRL | failed
MRFKAELMNAPEMRRALYRIAHEIVEANKGTEGLALVGIHTRGIPLAHRIARFIAEFEGKEVPVGVLDITLYRDDLTEIGYRPQVRETRIPFDLTGKAIVLVDDVLYTGRTARAALDALIDLGRPRRIYLAVLVDRGHRELPIRADFVGKNVPTSRSEVVKVKVEEVDGEDRVELWEREGA | not failed
MRFKAIFVRVTKELLRDKRTLALMLVAPVLVLTLMYFIFDTNNDVNLEVGVDESVPNKIVNALPSDKVKIKEYDSPSSIKKTIVNSDLDAYIEKKGDKLDVTYKNENPSNTGTTKQLLGSAIQKNKLQDMAKVINKIPSNIKQGNSAQGEQITLDNHYLYGNSDSTFFDKMFPILIGFFVFFFVFLISGIALLRERTKGTLERLLATSVKRSEIVFGYLAGYGMFAVLQTLIIVFYAIYLLKIDVAGSIWWVLLINILIALSALAMGIFVSTFANSEFQMVQFIPLVVIPQVFFSGIIPLDNVADWVSSIGYIFPLRYAGDALTNIMIKGEGFNNIWFDLSILLVFIIGFTVLNIIGLKRYRKV | not failed
MRFKFLRGKLNHPIKCVCDNLSMDNQIMSTELYSQILEVIALVPFGKVATYGQIARLAGLPKHARLVGYTLKNIDQASDIPWHRIINAQGKVSTYHLNQIGENIQLNKLRDEGIVVLNGKINLKKYQWLVSQS | failed
MRFLLMRSLLVHPCGGSIINVRSTTTSAQYVASRSRDPVFEKLMDKYKNLLKVIAIQDLTLANPTADPPSLSIEFLSRLSQKLHLNRGAASFLRKYPHIFHVLYDPVKAEPFCRLTDVAMEISRQEALAITATLSLVVDRLVRLLSMSISKSIPLRAVFKVWRELGLPDDFEDSVISKNPHLFKLSDGHESNTHILELVQEEEKRLEFEAAVEKWRVVECSKEDCSVDRTEIQFSFKHSYPPGMRLSKTFKAKVKEWQRLPYVGPYEDMVGKKKSRSGVMGIEKRAVAIAHEFLNLTVEKMVEVEKISHFRKCFGIDLNIRDLFLDHPGMFYVSTKGKRHTVFLREAYERGRLIDPNPVYDARRKLLDLVLLGRHAALSESGNTSMSEQE | failed
MRFVLRILKALALLLVLLVITAAGWLFIRPPELLRVGDGYAAKIVCSNVFIAGREAEDVLHDDVQAPGNPLLRLLRVSVDRDNDRVTARFMGLFAPSYALYRGAFGCTSVPDGNFEAAAKAAPFDPPAKMQANDALWPEGEGTGNPADGKIAALLSDAGVAGPAMRAIVVVRNGRIVTEAYGPGFSAKTPLIGWSMTKTVNATILGRLMLGGKISFDDDNLLAQWKNDARAKIKVSDLLGMESGLAFNENYGDVADVTRMLYLDPDMVSLPAGAPMEAAPGQRFRYSSGTAVLLSRIWMDRVGNAQAAFSYPHDALFAPLGMTSAVFELDARGTFAGSSYLYATAHDWARFGQFLLQDGVWNGQRLLPEGFVGAMRTPTAASNGRYSQGQAWLSPGRGSSAGAGLPEDTFWLTGHDGQSVAIVPSANLVVVRLGLTPSRLGYQPQTLLKAILAALPQSGAQQQAGSQRQAQPQP | failed
MRFWGKFFGFVIGFMFGRFFGALLGLWLGHLYDKRPGGGASFSQILGQAKNRQGIFFNTTFAVMGHVAKASGRVTETDIRIATLLMDQMRLTGDARKEAQQAFREGKEPDFDLCSSLQAFRAVTQGRQELVQMFIEIQIQTALSDGELDAAEHAILMTVAQELGYGRQQLDELLKRWQAEFRFHQTSSGNKTSITDAYHLLGITAEATDQEVKRAYRKLMNEHHPDKLVAKGLPPEMMEIANRKAQDIQAAYDRVKSERGMR | failed
MRGADGRVTDADYRELRGATETPREAVVVGLAGEVGLTSAEIPRVRPCDVAPHDHDGVTHYFLAVPGADGGSDRDAYLPPAVERDIRRRADAAGLADDDPLVDVSARRVQTLVNAVAGRTDTAGLDGVAAQDLRSFFARRLLTGAGVDPRVVAAVGGWSRLASLDQYAAVDAVDRDAIARAFDGTTRAPTDRSEQRAHDRVDEAHSAVLAAGDALSDASTRGAVETAVCEALAASDAYEMAWLARPTTRDDVTVAATAGGDRAIRDDASAAPGATLVQAALDDGTGLFTPAASAAPAVAALREHAAAAGVQAMGVVPVAGPEAAHGVLAVGASTARFSQRERTLITDLGRRVGRAVALAEQRHRLLTDTVLEVAFEVRAGSVFARAAVEQGCDLSLEGVVPGDRQTLVFFVRVAGAPADGVRDWLHDHDGVVSVRVVRDQGGEAVLAVGVAPGADLAMAVVSHGGTIRDLSAGPGGERVVAGVAPETDVRALLDALATAFPGVSLAAKRERARGDETGQRDGASLHDALTDKQAAVLRAAFHAGYFEWPRESTAEDLAADMGVTAPTLHNHLRRAQQKLLATVIDSDGGCDPDTPWPDTRQ | failed
MRGDDMHIYELVSRDRTHPVRIYLLHSEYWTEDEFYNLLLEAFQRSSASDWHLQILEVSKYLVTAHGFVEAGGLQEIGFPGELSKTEVRRRINAFLGKDRSD | not failed
MRGNDETVLAQALDWLRQGRRVALLTVLGTYGASPRPPGALAAIRDDGVICGSVSGGCVEDDLRREIAEGGVFGAAPSARVRSFGVSVEERQRYRLPCGNSLRVAVETMPDPAQLEALLAAVRQRRCLWRRVDYRDGAAHLLESGPPAAFAEDEAGFSALHGPLWRLLIIGGAELGRYLAQIALTLDYAVTVCEPREEYAAGWEPDGVALSAQMPDDLVLAFGCDERTAVVAVTHDPKLDDLALMEALRLPCHYVGALGSATTTMKRKARLAEHFGLTPAQLDRLHGPVGLPIGSRTPAEIAVSIAADLIASRSACHREGVHGEEGSCRA | failed
